The record followed here is patent publication US20090011988A1 (Genentech, published 2009).

T1: human IGFBP-1 (human, UniProt P08833 26-259)
T1 sequence (looked up): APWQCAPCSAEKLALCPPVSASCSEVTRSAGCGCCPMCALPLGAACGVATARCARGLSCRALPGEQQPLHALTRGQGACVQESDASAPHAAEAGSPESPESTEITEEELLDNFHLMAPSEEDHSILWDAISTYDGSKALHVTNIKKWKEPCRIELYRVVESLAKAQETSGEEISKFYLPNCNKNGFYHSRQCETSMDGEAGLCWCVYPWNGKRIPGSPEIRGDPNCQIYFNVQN

B1: BP-24 (peptide)
peptide: WFKTVCYEWEDEVQCYTLEEG-NH2
modifications: disulfide 6-15; N-terminus assumed
SMILES: CC(C)C[C@H](NC(=O)[C@@H](NC(=O)[C@H](Cc1ccc(O)cc1)NC(=O)[C@@H]1CSSC[C@H](NC(=O)[C@@H](NC(=O)[C@@H](NC(=O)[C@H](CCCCN)NC(=O)[C@H](Cc2ccccc2)NC(=O)[C@@H](N)Cc2c[nH]c3ccccc23)[C@@H](C)O)C(C)C)C(=O)N[C@@H](Cc2ccc(O)cc2)C(=O)N[C@@H](CCC(=O)O)C(=O)N[C@@H](Cc2c[nH]c3ccccc23)C(=O)N[C@@H](CCC(=O)O)C(=O)N[C@@H](CC(=O)O)C(=O)N[C@@H](CCC(=O)O)C(=O)N[C@@H](C(C)C)C(=O)N[C@@H](CCC(N)=O)C(=O)N1)[C@@H](C)O)C(=O)N[C@@H](CCC(=O)O)C(=O)N[C@@H](CCC(=O)O)C(=O)NCC(N)=O
notes: also called peptide of phage clone 4D3.5
B2: BP-23 (peptide)
peptide: ELDGWVCIKVGEQNLCYLAEG-NH2
modifications: disulfide 7-16; N-terminus assumed
SMILES: CC[C@H](C)[C@@H]1NC(=O)[C@@H](NC(=O)[C@@H](NC(=O)[C@H](Cc2c[nH]c3ccccc23)NC(=O)CNC(=O)[C@H](CC(=O)O)NC(=O)[C@H](CC(C)C)NC(=O)[C@@H](N)CCC(=O)O)C(C)C)CSSC[C@@H](C(=O)N[C@@H](Cc2ccc(O)cc2)C(=O)N[C@@H](CC(C)C)C(=O)N[C@@H](C)C(=O)N[C@@H](CCC(=O)O)C(=O)NCC(N)=O)NC(=O)[C@H](CC(C)C)NC(=O)[C@H](CC(N)=O)NC(=O)[C@H](CCC(N)=O)NC(=O)[C@H](CCC(=O)O)NC(=O)CNC(=O)[C@H](C(C)C)NC(=O)[C@H](CCCCN)NC1=O
notes: also called peptide of phage clone 4C3.2
B3: BP3-40 (peptide)
peptide: Ac-SEEVCWPVAEWYLCN-NH2
modifications: disulfide 5-14
SMILES: CC(=O)N[C@@H](CO)C(=O)N[C@@H](CCC(=O)O)C(=O)N[C@@H](CCC(=O)O)C(=O)N[C@H](C(=O)N[C@H]1CSSC[C@@H](C(=O)N[C@@H](CC(N)=O)C(N)=O)NC(=O)[C@H](CC(C)C)NC(=O)[C@H](Cc2ccc(O)cc2)NC(=O)[C@H](Cc2c[nH]c3ccccc23)NC(=O)[C@H](CCC(=O)O)NC(=O)[C@H](C)NC(=O)[C@H](C(C)C)NC(=O)[C@@H]2CCCN2C(=O)[C@H](Cc2c[nH]c3ccccc23)NC1=O)C(C)C
B4: BP3-39 (peptide)
peptide: SEEVCWPVAEWYLCN-NH2
modifications: disulfide 5-14; N-terminus assumed
SMILES: CC(C)C[C@@H]1NC(=O)[C@H](Cc2ccc(O)cc2)NC(=O)[C@H](Cc2c[nH]c3ccccc23)NC(=O)[C@H](CCC(=O)O)NC(=O)[C@H](C)NC(=O)[C@H](C(C)C)NC(=O)[C@@H]2CCCN2C(=O)[C@H](Cc2c[nH]c3ccccc23)NC(=O)[C@@H](NC(=O)[C@@H](NC(=O)[C@H](CCC(=O)O)NC(=O)[C@H](CCC(=O)O)NC(=O)[C@@H](N)CO)C(C)C)CSSC[C@@H](C(=O)N[C@@H](CC(N)=O)C(N)=O)NC1=O
B5: BP1-20 (peptide)
peptide: EARVCRAGPLQWLCEKYF-NH2
modifications: disulfide 5-14; N-terminus assumed
SMILES: CC(C)C[C@@H]1NC(=O)[C@H](Cc2c[nH]c3ccccc23)NC(=O)[C@H](CCC(N)=O)NC(=O)[C@H](CC(C)C)NC(=O)[C@@H]2CCCN2C(=O)CNC(=O)[C@H](C)NC(=O)[C@H](CCCNC(=N)N)NC(=O)[C@@H](NC(=O)[C@@H](NC(=O)[C@H](CCCNC(=N)N)NC(=O)[C@H](C)NC(=O)[C@@H](N)CCC(=O)O)C(C)C)CSSC[C@@H](C(=O)N[C@@H](CCC(=O)O)C(=O)N[C@@H](CCCCN)C(=O)N[C@@H](Cc2ccc(O)cc2)C(=O)N[C@@H](Cc2ccccc2)C(N)=O)NC1=O
B6: BP1-21A (peptide)
peptide: SEVGCRAGPLQWLCEKYFSTY-NH2
modifications: disulfide 5-14; N-terminus assumed
SMILES: CC(C)C[C@@H]1NC(=O)[C@H](Cc2c[nH]c3ccccc23)NC(=O)[C@H](CCC(N)=O)NC(=O)[C@H](CC(C)C)NC(=O)[C@@H]2CCCN2C(=O)CNC(=O)[C@H](C)NC(=O)[C@H](CCCNC(=N)N)NC(=O)[C@@H](NC(=O)CNC(=O)[C@@H](NC(=O)[C@H](CCC(=O)O)NC(=O)[C@@H](N)CO)C(C)C)CSSC[C@@H](C(=O)N[C@@H](CCC(=O)O)C(=O)N[C@@H](CCCCN)C(=O)N[C@@H](Cc2ccc(O)cc2)C(=O)N[C@@H](Cc2ccccc2)C(=O)N[C@@H](CO)C(=O)N[C@H](C(=O)N[C@@H](Cc2ccc(O)cc2)C(N)=O)[C@@H](C)O)NC1=O
notes: also called Y135C

Positions of bridges follow the written chain, without caps; N, C: chain ends. No end group written: not given here.

T2 sequence (P17936 28-291 limits assumed): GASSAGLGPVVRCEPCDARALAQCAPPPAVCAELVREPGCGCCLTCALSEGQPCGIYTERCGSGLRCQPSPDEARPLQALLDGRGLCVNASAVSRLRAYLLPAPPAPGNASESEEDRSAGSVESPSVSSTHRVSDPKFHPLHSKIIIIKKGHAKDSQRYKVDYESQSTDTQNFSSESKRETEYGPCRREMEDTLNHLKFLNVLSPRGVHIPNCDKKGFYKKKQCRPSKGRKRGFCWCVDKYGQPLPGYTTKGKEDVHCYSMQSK

The first assay concerns the target T1, human IGFBP-1. As to the kind of experiment: BIAcore inhibition assay. The procedure: Peptides were assayed in a BIAcore™ assay as described in WO 98/45427, supra.
(In general: Surface plasmon resonance follows binding to a sensor surface in real time, without labels.)
With Ac-RPLEWLAEKYFE (linker 4-12 via 1,5‑diaminopentane) [(i+8)B], the “fold potency reduction, IC50 (BP1-01)/IC50 (mut)” value came to 7.7. Turning to Ac-PLEWLAEKYEG (linker 3-10 via 1,5‑diaminopentane) [(i+7)C], the “fold potency reduction, IC50 (BP1-01)/IC50 (mut)” value worked out at 20. On the same count and under the same terms, to Ac-RAGPLEWLAEKYEG (linker 6-13 via 1,5‑diaminopentane) [(i+7)D] belongs 7.7; to Ac-CRAGPLQELCEKYAE (disulfide 1-10 (inferred); linker 8-15 via 1,5‑diaminopentane) [(i+7)A], 40; to Ac-RAGPLEWLAEKYFE (linker 6-14 via 1,5‑diaminopentane) [(i+8)C], 5.9.

A further assay addresses T2, recombinant human IGFBP-3 (human, UniProt P17936 28-291). As to the kind of experiment: BIAcore competition, IGFBP-3 to immobilized IGF-1. The procedure: IGF-1 was immobilized on a dextran chip for inhibition assays using a BIACORE™ 2000 surface-plasmon-resonance device (BIAcore, Inc., Piscataway, N.J.) to measure free binding protein. IGF-1 was biotinylated as described above, and injected over a chip to which streptavidin had been coupled (BIAcore, Inc.) to give 400 to 800 RU (response units) of immobilized IGF-1. […] After incubation for >1 hour at room temperature, an aliquot of 20:L was injected at a flow rate of 20:L/min over the IGF-1 chip. […]
For B1, the IC50 (usually the concentration at which inhibition is half-maximal) fell in the range of 100 to 300 µM. The same measure, in the same setting: to EESECFEGPGYVICGLVG (disulfide 5-14) [BP3-4B3.3] belongs 80 µM; to AWEVCWDRHQGYICTTDS (disulfide 5-14) [BP3-4D3.11DEL], 80 µM; to TVANCDCYMPLCLCYDSD (disulfide 7-12; disulfide 5-14 (inferred)) [BP3-08], 15 µM. Consider DMGVCADGPWMYVCEWTE (disulfide 5-14) [BP3-02-ox], for which the IC50 turned out to be 12 µM.

B2: the IC50 was found to be 220 µM.

For the molecule VAWEVCWDRHDQGYICTTDS (disulfide 6-16) [BP3-4D3.11], the IC50 was less than 10 µM. Consider TGVDCQCGPVHCVCMDWA (disulfide 7-12; disulfide 5-14 (inferred)) [BP3-06], for which the IC50 was determined as 5 µM. As to VCWPVAEWYLCNMWG (disulfide 2-11) [BP3-16], the IC50 is 30 µM.

The next assay concerns the target T2, recombinant human IGFBP-3. As to the kind of experiment: BIAcore competition, IGFBP-3 to IGF-1. The procedure:
IGF-1 was immobilized on a dextran chip for inhibition assays using a BIACORE™ 2000 surface-plasmon-resonance device (BIAcore, Inc., Piscataway, N.J.) to measure free binding protein. IGF-1 was biotinylated as described above, and injected over a chip to which streptavidin had been coupled (BIAcore, Inc.) to give 400 to 800 RU (response units) of immobilized IGF-1. […] After incubation for >1 hour at room temperature, an aliquot of 20:L was injected at a flow rate of 20:L/min over the IGF-1 chip.
For the molecule ASEEVCWPVAEWYLCN (disulfide 6-15) [BP3-30], the IC50 amounted to 5.6 µM. The same measure, in the same setting: to EVCWPVAEWYLCN (disulfide 3-12) [BP3-27] belongs 2.8 µM; to B3, 0.66 µM; to B4, 0.66 µM. As for WPVAEWYLCN (only one Cys, no intact disulfide) [BP3-24], the IC50 is greater than 1000 µM.

Turning to EEVCWPVAEWYLCN (disulfide 4-13) [BP3-28], the IC50 worked out at 5.4 µM. On the same count and under the same terms, to ASEEVCWPVAEWYLCNMWGR (disulfide 6-15) [4D3.3P] belongs 5.6 µM; to GPETCWPVAEWYLCN (disulfide 5-14) [BP3-41], 4 µM; to CWPVAEWYLCN (disulfide 1-10) [BP3-25], 46 µM.

Another assay has as its target T1, human IGFBP-1. Kind of assay: BIAcore kinetics, IGFBP-1 coupled to chip. The method, then: For each dilution of peptides, a global fit of the sensorgram data was performed using a 1:1 Langmuir binding model.
Turning to B5, the affinity, expressed as Kd, was 0.033 µM.

In the case of GQQSCRAGPLQWLCEKYFSTY (disulfide 5-14, also called Y0791A) [BP1-40], the equilibrium dissociation constant (Kd) (commonly the equilibrium constant for the complex coming apart) was determined as 0.027 µM.

B6 registered a Kd of 0.041 µM.
